Source: US20040048327

Tests used:
[1] = tested on: T1, Cbz-Leu-Leu-ALeu-trans-EP-COOEt
T1 sequence: LLL

[2] = tested on: T2, Cbz-Leu-AAbu-trans-EP-COOH
T2 sequence: LX

[3] = tested on: T3, Cbz-Leu-ALeu-trans-EP-COOEt
T3 sequence: LL

Cbz-ALeu-trans-EP-COOEt = tested on: T4, Cbz-ALeu-trans-EP-COOEt
T4 sequence: L

[4] = tested on: T5, Cbz-Leu-AAbu-trans-EP-COOEt
T5 sequence: LX

[5] = tested on: T6, Cbz-Leu-Leu-ALeu-(2R, 3R)-EP-COOEt
T6 sequence: LLL

[6] = tested on: T7, Cbz-Leu-ALeu-cis-EP-COOEt
T7 sequence: LL

[7] = tested on: T8, Cbz-Leu-Leu-ALeu-(2S, 3S)-EP-COOH
T8 sequence: LLL

[8] = tested on: T9, Cbz-Leu-AHph-(2S, 3S)-EP-COOH
T9 sequence: LX

[9] = tested on: T10, Ac-Leu-AHph-trans-EP-COOEt
T10 sequence: LX

Ac-AHph-trans-EP-COOEt = tested on: T11, Ac-AHph-trans-EP-COOEt
T11 sequence: X

[10] = tested on: T12, Cbz-Leu-AHph-(2R, 3R)-EP-COOEt
T12 sequence: LX

[11] = tested on: T13, Cbz-Leu-Leu-ALeu-(2S, 3S)-EP-COOEt
T13 sequence: LLL

[12] = tested on: T14, Cbz-Leu-ALeu-(2R, 3R)-EP-COOEt
T14 sequence: LL

[13] = tested on: T15, Cbz-Leu-ALeu-(2S, 3S)-EP-COOEt
T15 sequence: LL

[14] = tested on: T16, Ac-Leu-ALeu-trans-EP-COOEt
T16 sequence: LL

[15] = tested on: T17, Cbz-Leu-AHph-cis-EP-COOEt
T17 sequence: LX

Cbz-AHph-trans-EP-COOEt = tested on: T18, Cbz-AHph-trans-EP-COOEt
T18 sequence: X

[16] = tested on: T19, Cbz-Leu-AHph-(2S, 3S)-EP-COOEt
T19 sequence: LX

[17] = tested on: T20, Cbz-Ala-Ala-AAsn-(2R, 3R)-EP-COOEt
T20 sequence: AAN

[18] = tested on: T21, PhPr-Val-Ala-AAsp-trans-EP-CH2CH2Ph
T21 sequence: VAD

[19] = tested on: T22, Cbz-Asp-Glu-Val-AAsp-(2S, 3S)-EP-COOEt
T22 sequence: DEVD

[20] = tested on: T23, Cbz-Ala-Ala-AAsn-cis-EP-COOEt
T23 sequence: AAN

[21] = tested on: T24, PhPr-Val-Ala-AAsp-trans-EP-COOCH2Ph
T24 sequence: VAD

[22] = tested on: T25, Cbz-Ala-Ala-AAsn-(2S, 3S)-EP-COOEt
T25 sequence: AAN

[23] = tested on: T26, Cbz-Asp-Glu-Val-AAsp-(2R, 3R)-EP-COOEt
T26 sequence: DEVD

[24] = tested on: T27, Cbz-Leu-Glu-Thr-AAsp-(2S, 3S)-EP-COOEt
T27 sequence: LETD

[25] = tested on: T28, Cbz-Leu-Glu-Thr-AAsp-(2R, 3R)-EP-COOEt
T28 sequence: LETD

[26] = tested on: T29, Cbz-Ala-Ala-AAsn-trans-EP-COOEt
T29 sequence: AAN

[27] = tested on: T30, Boc-Nva-AHph-trans-EP-COOEt
T30 sequence: XX

[28] = tested on: T31, Cbz-Phe-APhe-trans-EP-CH2CH2Ph
T31 sequence: FF

[29] = tested on: T32, Cbz-Phe-ALeu-trans-EP-COOEt
T32 sequence: FL

[30] = tested on: T33, Boc-Nle-AHph-trans-EP-COOEt
T33 sequence: XX

[31] = tested on: T34, Cbz-Leu-Phe-AGln-(2S, 3S)-EP-COOEt
T34 sequence: LFQ

[32] = tested on: T35, Cbz-Phe-ALeu-trans-EP-CH2CH2Ph
T35 sequence: FL

[33] = tested on: T36, PhPr-Val-Ala-AAsp-(2S, 3S)-EP-COOCH2Ph
T36 sequence: VAD

[34] = tested on: T37, Cbz-Ile-Glu-Thr-AAsp-(2S, 3S)-EP-COOEt
T37 sequence: IETD

[35] = tested on: T38, Boc-Abu-AHph-trans-EP-CH2CH2Ph
T38 sequence: XX

[36] = tested on: T39, Cbz-Leu-Phe-AGln-trans-EP-COOEt
T39 sequence: LFQ

[37] = tested on: T40, PhPr-Val-Ala-AAsp-(2R, 3R)-EP-COOCH2Ph
T40 sequence: VAD

[38] = tested on: T41, Suc-Np2-ALeu-trans-EP-COOEt
T41 sequence: XL

Cbz-APhe-trans-EP-COOEt = tested on: T42, Cbz-APhe-trans-EP-COOEt
T42 sequence: F

[39] = tested on: T43, Cbz-Ala-Ala-AAsn-trans-EP-COOCH2Ph
T43 sequence: AAN

[40] = tested on: T44, Boc-Nle-AHph-trans-EP-CH2CH2Ph
T44 sequence: XX

[41] = tested on: T45, Cbz-Leu-Phe-AGln-(2R, 3R)-EP-COOEt
T45 sequence: LFQ

[42] = tested on: T46, Cbz-Ala-Ala-NHN(CH2COOEt)-trans-EP-COOEt
T46 sequence: AAD

[43] = tested on: T47, Boc-Np2-ALeu-trans-EP-COOEt
T47 sequence: XL

[44] = tested on: T48, Nva-AHph-trans-EP-COOEt.TFA
T48 sequence: XX

[45] = tested on: T49, Nle-AHph-trans-EP-COOEt.TFA
T49 sequence: XX

[46] = tested on: T50, Nva-AHph-trans-EP-CH2CH2Ph.TFA
T50 sequence: XX

calpain
kobs/[I] [1]: 2.65 M⁻¹ s⁻¹ | kobs/[I] [2]: 0.57 M⁻¹ s⁻¹ | kobs/[I] [3]: 3.09 M⁻¹ s⁻¹ | kobs/[I] (Cbz-ALeu-trans-EP-COOEt): 1.75 M⁻¹ s⁻¹ | kobs/[I] [4]: 1.98 M⁻¹ s⁻¹ | kobs/[I] [5]: NI | kobs/[I] [6]: 1.88 M⁻¹ s⁻¹ | kobs/[I] [7]: 0.82 M⁻¹ s⁻¹ | kobs/[I] [8]: 2.12 M⁻¹ s⁻¹ | kobs/[I] [9]: 0.84 M⁻¹ s⁻¹ | kobs/[I] (Ac-AHph-trans-EP-COOEt): 1.29 M⁻¹ s⁻¹ | kobs/[I] [10]: 2.12 M⁻¹ s⁻¹ | kobs/[I] [11]: 2.48 M⁻¹ s⁻¹ | kobs/[I] [12]: 1.45 M⁻¹ s⁻¹ | kobs/[I] [13]: 8.58 M⁻¹ s⁻¹ | kobs/[I] [14]: 1.48 M⁻¹ s⁻¹ | kobs/[I] [15]: 1.09 M⁻¹ s⁻¹ | kobs/[I] (Cbz-AHph-trans-EP-COOEt): 2.44 M⁻¹ s⁻¹ | kobs/[I] [16]: 2.28 M⁻¹ s⁻¹

chymotrypsin
kobs/[I] [17]: NI | kobs/[I] [18]: NI | kobs/[I] [19]: NI | kobs/[I] [20]: NI | kobs/[I] [21]: NI | kobs/[I] [22]: NI | kobs/[I] [23]: NI | kobs/[I] [24]: NI | kobs/[I] [25]: NI | kobs/[I] [26]: NI

cathepsin B
kobs/[I] [27]: 2.7 M⁻¹ s⁻¹ | kobs/[I] [17]: NI | kobs/[I] [1]: NI | kobs/[I] [18]: NI | kobs/[I] [2]: NI | kobs/[I] [3]: 23.3 M⁻¹ s⁻¹ | kobs/[I] [19]: NI | kobs/[I] [28]: NI | kobs/[I] [20]: NI | kobs/[I] [21]: < 10 M⁻¹ s⁻¹ | kobs/[I] (Cbz-ALeu-trans-EP-COOEt): 4.43 M⁻¹ s⁻¹ | kobs/[I] [5]: NI | kobs/[I] [29]: 3.61 M⁻¹ s⁻¹ | kobs/[I] [30]: 1.3 M⁻¹ s⁻¹ | kobs/[I] [31]: 4.73 M⁻¹ s⁻¹ | kobs/[I] [6]: 6.27 M⁻¹ s⁻¹ | kobs/[I] [32]: NI | kobs/[I] [33]: 0.81 M⁻¹ s⁻¹ | kobs/[I] [34]: NI | kobs/[I] [7]: 7.02 M⁻¹ s⁻¹ | kobs/[I] [22]: 6 M⁻¹ s⁻¹ | kobs/[I] [35]: NI | kobs/[I] [36]: 1.3 M⁻¹ s⁻¹ | kobs/[I] [37]: NI | kobs/[I] [38]: 0.8 M⁻¹ s⁻¹ | kobs/[I] [9]: 0.59 M⁻¹ s⁻¹ | kobs/[I] (Ac-AHph-trans-EP-COOEt): 40.6 M⁻¹ s⁻¹ | kobs/[I] [23]: NI | kobs/[I] (Cbz-APhe-trans-EP-COOEt): 1.8 M⁻¹ s⁻¹ | kobs/[I] [39]: 1.09 M⁻¹ s⁻¹ | kobs/[I] [40]: NI | kobs/[I] [10]: NI | kobs/[I] [11]: 0.98 M⁻¹ s⁻¹ | kobs/[I] [41]: NI | kobs/[I] [24]: NI | kobs/[I] [42]: 2.53 M⁻¹ s⁻¹ | kobs/[I] [43]: 0.39 M⁻¹ s⁻¹ | kobs/[I] [25]: NI | kobs/[I] [12]: NI | kobs/[I] [26]: 1.27 M⁻¹ s⁻¹ | kobs/[I] [13]: 1.8 M⁻¹ s⁻¹ | kobs/[I] [14]: 8 M⁻¹ s⁻¹ | kobs/[I] [15]: NI | kobs/[I] (Cbz-AHph-trans-EP-COOEt): 8.91 M⁻¹ s⁻¹ | kobs/[I] [16]: 0.67 M⁻¹ s⁻¹

dipeptidyl peptidase I
kobs/[I] [27]: 0.5 M⁻¹ s⁻¹ | kobs/[I] [44]: 3.2 M⁻¹ s⁻¹ | kobs/[I] [45]: 8.2 M⁻¹ s⁻¹ | kobs/[I] [46]: 0.1 M⁻¹ s⁻¹ | kobs/[I] [30]: 0.7 M⁻¹ s⁻¹
